# Reference: patent publication US20210317168
# B1: Calcium-dependent serine protease, complement component 1s (C1s) of CHO cells (protein)
# chain: EPTMHGEILSPNYPQAYPNEIEKTWDIEVPEGFGIRLYFTHLDMELSENCEYDSVQIISGGVEEGRLCGQRTSKNANSPIVEEFQMPYNKLQVIFRSDFSNEERFTGFAAYYAAVDINECTDFTDVPCSHFCNNFIGGYFCSCPPEYFLHDDMRNCGVNCSGNVFTALIGEISSPNYPSPYPENSRCEYQILLEEGFQVVVTIRREDFDVEPADSEGNCQDSLLFAAKNQLFGPYCGNGFPGPLTIETHSNTLDIVFQTDLTEQRKGWKLRYHGDPIPCPKEITANSVWVPEKAKYVFKDVVKISCVDGFEVVEGNVGSAFFYSTCQSNGQWSNSRLQCQPVDCGIPEPIQNGKVDDPENTVFGSVIQYSCEEPYYYMEHEEHGGEYRCAANGSWVNDELGIELPKCVPVCGVPTEPIALQQRIFGGFPAKIQSFPWQVFFESPRAGGALIDEYWVLTAAHVVEGNSDPSMYVGTTFVRMEHLANAQRLTAERVIIHPGWKPADDLETRTNFDNDIALVQLKDPVKMGPTVSPICLPGTSSEYNPSKNDLGLISGWGRTEKRNIVPQLKGAKLPVTSLEKCQQVKGENSKVRADDYVFTSNMICAGEKGVDSCQGDSGGAFALQVPNVKDPKFYVAGLVSWGKKCGTYGIYTKVKNYMDWIVKTMQENSVPSKD
# Molecular target: purified MN gp120 (clade B), P05877
protein,measurement,value
B1,"proteolysis of gp120 in 10x concentrated CHO supernatant, western blot, with or without EGTA","inhibition of proteolysis of gp120 in CHO cell supernatant with EGTA, a calcium-chelating agent suggested that C1s is the major protease responsible for gp120 cleavage"
